{
  "source": "patent US20170267783A1",
  "about": "(published 2017)",
  "binders": {"B1": {"name": "TR01H067-E2702GsKsc/GCH054-E2704sEpsc/L0212-k0 (bispecific antibody, human IgG4 S228P, kappa, N297A)", "heavy 1": "QVQLVESGGGLVQPGRSLRLSCAASGFTFSNAWMHWVRQAPGKGLEWVAQIKDKSQNYATYYAESVKGRFTISRDDSKNSLYLQMNSLKTEDTAVYYCRYVHYAASYGVDAWGQGTTVTVSSASTKGPSVFPLAPCSRSTSESTAALGCLVKDYFPEPVTVSWNSGALTSGVHTFPAVLQSSGLYSLSSVVTVPSSSLGTKTYTCNVDHKPSNTKVDKRVESKYGPPCPPCPAPEFRGGPKVFLFPPKPKDTLMISRTPEVTCVVVDVSQEDPEVQFNWYVDGVEVHNAKTKPREEQFASTYRVVSVLTVLHQDWLNGKEYKCKVSNKGLPSSIEKTISKAKGQPREPQVYTLPPSQKEMTKNQVSLTCLVKGFYPSDIAVEWESNGQPENNYKTTPPVLDSDGSFFLYSKLTVDKSRWQEGNVFSCSVMHEALHNRYTQKSLSLSP", "heavy 2": "QVQLVQSGAEVKKPGASVTVSCKASGYTFTDYEMHWIRQPPGEGLEWIGAIDGETPDTAYSEKFKGRVTLTADKSTSTAYMELSSLTSEDTAVYYCTRFYSYTYWGQGTLVTVSSASTKGPSVFPLAPCSRSTSESTAALGCLVKDYFPEPVTVSWNSGALTSGVHTFPAVLQSSGLYSLSSVVTVPSSSLGTQTYTCNVDHKPSNTKVDKRVESKYGPPCPPCPAPEFRGGPKVFLFPPKPKDTLMISRTPEVTCVVVDVSQEDPEVQFNWYVDGVEVHNAKTKPREEQFASTYRVVSVLTVLHQDWLNGKEYKCKVSNKGLPSSIEKTISKAKGQPREPQVYTLPPSQEEMTKNQVSLTCLVKGFYPSDIAVEWESNGQPENNYKTTPPVLDSDGSFFLYSKLTVDKSRWQEGNVFSCSVMHEALHNHYTQESLSLSP", "light": "DIVMTQSPLSLPVTPGEPASISCRPSQSPVHSNRNTYLHWYQQKPGQAPRLLIYKVSNRFSGVPDRFSGSGSGTDFTLKISRVEAEDVGVYYCYQGTQVPYTFGQGTKLEIKRTVAAPSVFIFPPSDEQLKSGTASVVCLLNNFYPREAKVQWKVDNALQSGNSQESVTEQDSKDSTYSLSSTLTLSKADYEKHKVYACEVTHQGLSSPVTKSFNRGEC"}, "B2": {"name": "TR01H113-E2702GsKsc/GCH065-E2704sEpsc/L0011-k0 (bispecific antibody, human IgG4 S228P, kappa, N297A)", "heavy 1": "QVQLVESGGGVVQPGGSLRLSCAASGFTFSNAWMHWVRQAPGKGLEWVAQIKDKSQNYATYVAESVKGRFTISRADSKNSIYLQMNSLKTEDTAVYYCRYVHYAAGYGVDIWGQGTTVTVSSASTKGPSVFPLAPCSRSTSESTAALGCLVKDYFPEPVTVSWNSGALTSGVHTFPAVLQSSGLYSLSSVVTVPSSSLGTKTYTCNVDHKPSNTKVDKRVESKYGPPCPPCPAPEFRGGPKVFLFPPKPKDTLMISRTPEVTCVVVDVSQEDPEVQFNWYVDGVEVHNAKTKPREEQFASTYRVVSVLTVLHQDWLNGKEYKCKVSNKGLPSSIEKTISKAKGQPREPQVYTLPPSQKEMTKNQVSLTCLVKGFYPSDIAVEWESNGQPENNYKTTPPVLDSDGSFFLYSKLTVDKSRWQEGNVFSCSVMHEALHNRYTQKSLSLSP", "heavy 2": "QVQLVQSGAEVKKPGASVTVSCKASGYTFTDYEMHWIRQPPGEGLEWIGAIDGPTPDTAYSEKFKGRVTLTADKSTSTAYMELSSLTSEDTAVYYCTRFYSYTYWGQGTLVTVSSASTKGPSVFPLAPCSRSTSESTAALGCLVKDYFPEPVTVSWNSGALTSGVHTFPAVLQSSGLYSLSSVVTVPSSSLGTQTYTCNVDHKPSNTKVDKRVESKYGPPCPPCPAPEFRGGPKVFLFPPKPKDTLMISRTPEVTCVVVDVSQEDPEVQFNWYVDGVEVHNAKTKPREEQFASTYRVVSVLTVLHQDWLNGKEYKCKVSNKGLPSSIEKTISKAKGQPREPQVYTLPPSQEEMTKNQVSLTCLVKGFYPSDIAVEWESNGQPENNYKTTPPVLDSDGSFFLYSKLTVDKSRWQEGNVFSCSVMHEALHNHYTQESLSLSP", "light": "DIVMTQSPLSLPVTPGEPASISCRSSQPLVHSNRNTYLHWYQQKPGQAPRLLIYKVSNRFSGVPDRFSGSGSGTDFTLKISRVEAEDVGVYYCGQGTQVPYTFGQGTKLEIKRTVAAPSVFIFPPSDEQLKSGTASVVCLLNNFYPREAKVQWKVDNALQSGNSQESVTEQDSKDSTYSLSSTLTLSKADYEKHKVYACEVTHQGLSSPVTKSFNRGEC"}},
  "target": "extracellular matrix (ECM; BD Matrigel)",
  "assay": "ECL on Matrigel-coated plate, signal divided by that of MRAH-G1d/MRAL-k0",
  "data": [
    {"binder": "B1", "values": [
      {"measurement": "ECM binding ratio (standard = 1) (ratio to standard antibody)", "value": 3.3}
    ]},
    {"binder": "B2", "values": [
      {"measurement": "ECM binding ratio (standard = 1) (ratio to standard antibody)", "value": 2.5}
    ]}
  ]
}
